Measured values published in patent publication US20220204580A1 (AstraZeneca / MedImmune, published 2022).
Numbered stars: 1 amine (or outer) side, 2 acyl side, 3 side chain; on linkers, the order of the positions; unused ones are H or OH. Bridge positions count the residues as written; N and C are the ends. Square brackets hold non-standard residues; d marks the D form. Side chains are listed from the residue outwards. Ends that are not written are not given here. * marks the point of attachment. C20 diacid = O=C(O)CCCCCCCCCCCCCCCCCCC(=O)*; C18 diacid = O=C(O)CCCCCCCCCCCCCCCCC(=O)*; γGlu = O=C(O)[C@H](CCC(=O)[*:2])N[*:1]; αMeF = C[C@](N)(Cc1ccccc1)C(=O)O; AEEA = NCCOCCOCC(=O)O

T1: rat calcitonin receptor (rat, UniProt P32214 25-516)
T1 sequence (looked up): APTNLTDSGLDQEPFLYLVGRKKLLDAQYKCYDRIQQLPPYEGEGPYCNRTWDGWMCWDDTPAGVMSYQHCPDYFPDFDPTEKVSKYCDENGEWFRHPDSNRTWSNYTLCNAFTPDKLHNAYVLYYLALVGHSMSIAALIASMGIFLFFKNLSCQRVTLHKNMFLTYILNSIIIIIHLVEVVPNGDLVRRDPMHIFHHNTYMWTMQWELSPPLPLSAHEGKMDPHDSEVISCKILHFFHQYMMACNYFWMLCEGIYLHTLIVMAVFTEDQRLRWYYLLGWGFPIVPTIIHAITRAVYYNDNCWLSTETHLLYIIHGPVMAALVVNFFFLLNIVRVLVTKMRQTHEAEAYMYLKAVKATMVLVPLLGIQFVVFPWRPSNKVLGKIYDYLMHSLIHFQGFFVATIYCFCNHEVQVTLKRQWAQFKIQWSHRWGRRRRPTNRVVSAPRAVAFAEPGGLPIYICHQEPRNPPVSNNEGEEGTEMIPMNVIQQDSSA

T2: rat amylin receptor (calcitonin receptor co-expressed with receptor activity modifying protein, RAMP3) (rat, UniProt P32214 25-516; Q9JJ73 23-147)
T2 sequence (looked up) 1: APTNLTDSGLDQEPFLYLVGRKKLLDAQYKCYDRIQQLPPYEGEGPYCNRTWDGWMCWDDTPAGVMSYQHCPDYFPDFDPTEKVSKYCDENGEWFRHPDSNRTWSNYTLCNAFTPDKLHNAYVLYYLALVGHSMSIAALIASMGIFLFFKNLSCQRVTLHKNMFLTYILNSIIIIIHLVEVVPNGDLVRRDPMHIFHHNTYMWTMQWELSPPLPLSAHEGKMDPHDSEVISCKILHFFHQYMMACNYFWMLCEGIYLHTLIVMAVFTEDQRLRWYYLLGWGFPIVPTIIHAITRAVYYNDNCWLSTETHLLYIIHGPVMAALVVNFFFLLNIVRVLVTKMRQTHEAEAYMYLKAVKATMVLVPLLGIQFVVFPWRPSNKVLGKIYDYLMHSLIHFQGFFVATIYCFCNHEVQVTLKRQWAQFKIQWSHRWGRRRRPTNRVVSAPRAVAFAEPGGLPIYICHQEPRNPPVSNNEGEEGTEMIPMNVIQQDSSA
T2 sequence (looked up) 2: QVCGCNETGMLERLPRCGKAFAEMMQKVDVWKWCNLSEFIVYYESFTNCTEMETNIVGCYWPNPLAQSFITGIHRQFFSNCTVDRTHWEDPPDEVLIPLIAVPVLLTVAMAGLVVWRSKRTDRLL

T3: human amylin receptor (calcitonin receptor co-expressed with receptor activity modifying protein, RAMP3) (human, UniProt P30988 25-474; O60896 24-148)
T3 sequence (looked up) 1: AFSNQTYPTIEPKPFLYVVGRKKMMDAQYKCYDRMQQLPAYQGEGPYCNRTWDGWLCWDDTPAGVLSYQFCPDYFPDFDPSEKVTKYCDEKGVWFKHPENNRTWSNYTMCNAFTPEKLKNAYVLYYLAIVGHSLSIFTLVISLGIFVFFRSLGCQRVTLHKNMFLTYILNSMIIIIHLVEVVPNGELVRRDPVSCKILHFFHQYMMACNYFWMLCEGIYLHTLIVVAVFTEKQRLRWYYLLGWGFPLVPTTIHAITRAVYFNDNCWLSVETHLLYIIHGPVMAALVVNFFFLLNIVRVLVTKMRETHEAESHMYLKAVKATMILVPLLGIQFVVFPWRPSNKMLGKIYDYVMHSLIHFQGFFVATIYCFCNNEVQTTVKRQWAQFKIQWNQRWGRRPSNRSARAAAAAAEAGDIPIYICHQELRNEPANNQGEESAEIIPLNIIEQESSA
T3 sequence (looked up) 2: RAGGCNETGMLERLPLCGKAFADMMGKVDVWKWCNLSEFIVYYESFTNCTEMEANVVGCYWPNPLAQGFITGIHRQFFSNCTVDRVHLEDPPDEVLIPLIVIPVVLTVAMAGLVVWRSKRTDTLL

T4: human calcitonin receptor (human, UniProt P30988 25-474)
T4 sequence (looked up): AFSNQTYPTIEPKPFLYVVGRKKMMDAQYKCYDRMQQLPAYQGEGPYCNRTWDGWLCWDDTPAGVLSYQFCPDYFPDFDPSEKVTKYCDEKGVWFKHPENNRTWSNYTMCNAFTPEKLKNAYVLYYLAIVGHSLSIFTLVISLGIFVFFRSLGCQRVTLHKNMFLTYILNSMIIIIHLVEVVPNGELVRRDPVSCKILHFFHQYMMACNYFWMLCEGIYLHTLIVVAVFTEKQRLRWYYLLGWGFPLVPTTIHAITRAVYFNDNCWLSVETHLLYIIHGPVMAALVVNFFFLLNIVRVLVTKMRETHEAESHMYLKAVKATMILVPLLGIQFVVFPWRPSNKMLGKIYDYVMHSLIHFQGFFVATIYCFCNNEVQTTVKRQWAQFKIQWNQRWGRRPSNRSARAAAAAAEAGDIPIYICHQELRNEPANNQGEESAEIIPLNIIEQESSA


Tests used:
Assay in all cases: cell-based or functional assay
rat calcitonin receptor = biological target: T1, rat calcitonin receptor
[1] = biological target: T2, rat amylin receptor (calcitonin …)
[2] = biological target: T3, human amylin receptor (calcitonin …)
[3] = biological target: T4, human calcitonin receptor

Row | EC50 (cAMP production) (rat calcitonin receptor) | EC50 (cAMP production) [1] | EC50 (cAMP production) [2] | Ratio (EC50 hCTR / EC50 hAMYR3) [2] | EC50 (cAMP production) [3] | Binder
1 | 4.87 nM | 0.0122 nM | 1.32 nM | 12 | 15.8 nM | K([γGlu-γGlu-C20 diacid])CNTATCATQRLANFLVHSSNNFGPILPPTNVGSRTY-NH2 (disulfide 2-7; N-terminus assumed; SMILES CC[C@H](C)[C@H](NC(=O)[C@@H]1CCCN1C(=O)CNC(=O)[C@H](Cc1ccccc1)NC(=O)[C@H](CC(N)=O)NC(=O)[C@H](CC(N)=O)NC(=O)[C@H](CO)NC(=O)[C@H](CO)NC(=O)[C@H](Cc1c[nH]cn1)NC(=O)[C@@H](NC(=O)[C@H](CC(C)C)NC(=O)[C@H](Cc1ccccc1)NC(=O)[C@H](CC(N)=O)NC(=O)[C@H](C)NC(=O)[C@H](CC(C)C)NC(=O)[C@H](CCCNC(=N)N)NC(=O)[C@H](CCC(N)=O)NC(=O)[C@@H](NC(=O)[C@H](C)NC(=O)[C@@H]1CSSC[C@H](NC(=O)[C@@H](N)CCCCNC(=O)CC[C@H](NC(=O)CC[C@H](NC(=O)CCCCCCCCCCCCCCCCCCC(=O)O)C(=O)O)C(=O)O)C(=O)N[C@@H](CC(N)=O)C(=O)N[C@@H]([C@@H](C)O)C(=O)N[C@@H](C)C(=O)N[C@@H]([C@@H](C)O)C(=O)N1)[C@@H](C)O)C(C)C)C(=O)N[C@@H](CC(C)C)C(=O)N1CCC[C@H]1C(=O)N1CCC[C@H]1C(=O)N[C@H](C(=O)N[C@@H](CC(N)=O)C(=O)N[C@H](C(=O)NCC(=O)N[C@@H](CO)C(=O)N[C@@H](CCCNC(=N)N)C(=O)N[C@H](C(=O)N[C@@H](Cc1ccc(O)cc1)C(N)=O)[C@@H](C)O)C(C)C)[C@@H](C)O) [Peptide 114 (SEQ ID NO: 114)]
2 | 22.6 nM | 0.0226 nM | 0.703 nM | 11 | 7.65 nM | K([γGlu-γGlu-C20 diacid])CNTATCATQRLANFLVHSSPNFPAILSPTNVGSNTY-NH2 (disulfide 2-7; N-terminus assumed; SMILES CC[C@H](C)[C@H](NC(=O)[C@H](C)NC(=O)[C@@H]1CCCN1C(=O)[C@H](Cc1ccccc1)NC(=O)[C@H](CC(N)=O)NC(=O)[C@@H]1CCCN1C(=O)[C@H](CO)NC(=O)[C@H](CO)NC(=O)[C@H](Cc1c[nH]cn1)NC(=O)[C@@H](NC(=O)[C@H](CC(C)C)NC(=O)[C@H](Cc1ccccc1)NC(=O)[C@H](CC(N)=O)NC(=O)[C@H](C)NC(=O)[C@H](CC(C)C)NC(=O)[C@H](CCCNC(=N)N)NC(=O)[C@H](CCC(N)=O)NC(=O)[C@@H](NC(=O)[C@H](C)NC(=O)[C@@H]1CSSC[C@H](NC(=O)[C@@H](N)CCCCNC(=O)CC[C@H](NC(=O)CC[C@H](NC(=O)CCCCCCCCCCCCCCCCCCC(=O)O)C(=O)O)C(=O)O)C(=O)N[C@@H](CC(N)=O)C(=O)N[C@@H]([C@@H](C)O)C(=O)N[C@@H](C)C(=O)N[C@@H]([C@@H](C)O)C(=O)N1)[C@@H](C)O)C(C)C)C(=O)N[C@@H](CC(C)C)C(=O)N[C@@H](CO)C(=O)N1CCC[C@H]1C(=O)N[C@H](C(=O)N[C@@H](CC(N)=O)C(=O)N[C@H](C(=O)NCC(=O)N[C@@H](CO)C(=O)N[C@@H](CC(N)=O)C(=O)N[C@H](C(=O)N[C@@H](Cc1ccc(O)cc1)C(N)=O)[C@@H](C)O)C(C)C)[C@@H](C)O) [Peptide 115 (SEQ ID NO: 115)]
3 | 9.05 nM | 0.0237 nM | 1.21 nM | 8 | 9.56 nM | K([γGlu-γGlu-C20 diacid])CNTATCATQRLAEFLRHSSNNFGPILPPTNVGSNTY-NH2 (disulfide 2-7; N-terminus assumed; SMILES CC[C@H](C)[C@H](NC(=O)[C@@H]1CCCN1C(=O)CNC(=O)[C@H](Cc1ccccc1)NC(=O)[C@H](CC(N)=O)NC(=O)[C@H](CC(N)=O)NC(=O)[C@H](CO)NC(=O)[C@H](CO)NC(=O)[C@H](Cc1c[nH]cn1)NC(=O)[C@H](CCCNC(=N)N)NC(=O)[C@H](CC(C)C)NC(=O)[C@H](Cc1ccccc1)NC(=O)[C@H](CCC(=O)O)NC(=O)[C@H](C)NC(=O)[C@H](CC(C)C)NC(=O)[C@H](CCCNC(=N)N)NC(=O)[C@H](CCC(N)=O)NC(=O)[C@@H](NC(=O)[C@H](C)NC(=O)[C@@H]1CSSC[C@H](NC(=O)[C@@H](N)CCCCNC(=O)CC[C@H](NC(=O)CC[C@H](NC(=O)CCCCCCCCCCCCCCCCCCC(=O)O)C(=O)O)C(=O)O)C(=O)N[C@@H](CC(N)=O)C(=O)N[C@@H]([C@@H](C)O)C(=O)N[C@@H](C)C(=O)N[C@@H]([C@@H](C)O)C(=O)N1)[C@@H](C)O)C(=O)N[C@@H](CC(C)C)C(=O)N1CCC[C@H]1C(=O)N1CCC[C@H]1C(=O)N[C@H](C(=O)N[C@@H](CC(N)=O)C(=O)N[C@H](C(=O)NCC(=O)N[C@@H](CO)C(=O)N[C@@H](CC(N)=O)C(=O)N[C@H](C(=O)N[C@@H](Cc1ccc(O)cc1)C(N)=O)[C@@H](C)O)C(C)C)[C@@H](C)O) [Peptide 116 (SEQ ID NO: 116)]
4 | 10.4 nM | 0.0326 nM | 1.17 nM | 16 | 18.5 nM | {C20 diacid-γGlu-AEEA-AEEA}-KCNTATCATQRLANFLVHSSNNFGPILPPTNVGSNTY-NH2 (disulfide 2-7) [Peptide 113 (SEQ ID NO: 113)]

Continued, binder first:

Row | Binder | EC50 (cAMP production) (rat calcitonin receptor) | EC50 (cAMP production) [1] | EC50 (cAMP production) [2] | Ratio (EC50 hCTR / EC50 hAMYR3) [2] | EC50 (cAMP production) [3]
5 | K([γGlu-C18 diacid])KCNTATCATQRLAEFLRHSSNN[αMeF]GPILPPTNVGSNTY-NH2 (disulfide 3-8; N-terminus assumed; SMILES CC[C@H](C)[C@H](NC(=O)[C@@H]1CCCN1C(=O)CNC(=O)[C@](C)(Cc1ccccc1)NC(=O)[C@H](CC(N)=O)NC(=O)[C@H](CC(N)=O)NC(=O)[C@H](CO)NC(=O)[C@H](CO)NC(=O)[C@H](Cc1c[nH]cn1)NC(=O)[C@H](CCCNC(=N)N)NC(=O)[C@H](CC(C)C)NC(=O)[C@H](Cc1ccccc1)NC(=O)[C@H](CCC(=O)O)NC(=O)[C@H](C)NC(=O)[C@H](CC(C)C)NC(=O)[C@H](CCCNC(=N)N)NC(=O)[C@H](CCC(N)=O)NC(=O)[C@@H](NC(=O)[C@H](C)NC(=O)[C@@H]1CSSC[C@H](NC(=O)[C@H](CCCCN)NC(=O)[C@@H](N)CCCCNC(=O)CC[C@H](NC(=O)CCCCCCCCCCCCCCCCC(=O)O)C(=O)O)C(=O)N[C@@H](CC(N)=O)C(=O)N[C@@H]([C@@H](C)O)C(=O)N[C@@H](C)C(=O)N[C@@H]([C@@H](C)O)C(=O)N1)[C@@H](C)O)C(=O)N[C@@H](CC(C)C)C(=O)N1CCC[C@H]1C(=O)N1CCC[C@H]1C(=O)N[C@H](C(=O)N[C@@H](CC(N)=O)C(=O)N[C@H](C(=O)NCC(=O)N[C@@H](CO)C(=O)N[C@@H](CC(N)=O)C(=O)N[C@H](C(=O)N[C@@H](Cc1ccc(O)cc1)C(N)=O)[C@@H](C)O)C(C)C)[C@@H](C)O) [Peptide 12 (SEQ ID NO: 12)] | 0.107 nM | 0.005 nM | 0.158 nM | 8 | 1.22 nM
6 | {C18 diacid-γGlu}-CNTATCATQRLAEFLRHSSNN[αMeF]GPILPPTNVGSNTY-NH2 (disulfide 1-6; numbers in words are those of the source; also: K1 deleted) [Peptide 10 (SEQ ID NO: 10)] | 2.78 nM | 0.0121 nM | 0.183 nM | 15 | 2.73 nM
7 | {C20 diacid-γGlu}-KCNTATCATQRLANFLVHSSNNFGPILPPTNVGSNTY-NH2 (disulfide 2-7) [Peptide 112 (SEQ ID NO: 112)] | 0.259 nM | 0.016 nM | 0.861 nM | 2 | 1.33 nM
